The values below are quoted from earlier work in PMC8033747.

The Kd is the equilibrium constant for the complex coming apart.

The target of this data set is CHMP3 (Homo sapiens) (UniProt Q9Y3E7). Description: SPR.
CHMP3 (Homo sapiens), sequence (Q9Y3E7 2-222): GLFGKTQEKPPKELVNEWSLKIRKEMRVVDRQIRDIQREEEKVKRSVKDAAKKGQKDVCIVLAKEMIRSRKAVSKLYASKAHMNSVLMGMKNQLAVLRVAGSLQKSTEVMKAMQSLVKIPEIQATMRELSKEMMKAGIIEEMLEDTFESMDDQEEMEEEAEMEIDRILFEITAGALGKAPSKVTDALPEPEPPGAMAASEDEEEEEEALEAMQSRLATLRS

CHMP2B, sequence (Q9UQN3 2-213): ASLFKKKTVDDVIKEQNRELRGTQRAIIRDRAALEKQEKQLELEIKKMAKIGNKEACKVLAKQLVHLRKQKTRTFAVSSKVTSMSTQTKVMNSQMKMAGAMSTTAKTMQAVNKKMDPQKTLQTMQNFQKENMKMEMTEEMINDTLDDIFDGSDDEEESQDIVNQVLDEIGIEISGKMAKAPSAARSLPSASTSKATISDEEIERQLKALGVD
CHMP2A, sequence (O43633 whole entry): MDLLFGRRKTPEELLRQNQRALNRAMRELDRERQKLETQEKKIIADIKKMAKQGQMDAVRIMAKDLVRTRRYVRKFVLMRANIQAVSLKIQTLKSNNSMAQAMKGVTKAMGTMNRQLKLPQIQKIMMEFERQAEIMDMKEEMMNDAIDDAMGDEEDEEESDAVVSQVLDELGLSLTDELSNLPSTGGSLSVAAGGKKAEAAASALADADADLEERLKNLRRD

Consider CHMP2A (from UniProt O43633), for which the Kd is 3.2 µM. Turning to CHMP2B (from UniProt Q9UQN3), the Kd was 1.4 µM.
